This note sets out measurements from patent US20130108548A1 (VECT HORUS, published 2013).

The target in test [1] is rat LDLR on rat brain capillary endothelial cells (RBCEC) (rat) (UniProt P35952). The test can be described thus: cell-based or functional assay.
Test [2] has as its target mouse LDLR in tissues of wild-type mice (mouse, UniProt P35951 22-862). Description: cell-based or functional assay.
The target in test [3] is T1, human low-density lipoprotein receptor fused with RFP, on CHO-hLDLR-RFP cells (human, UniProt P01130 22-860).
T1 construct: whole, on cells; also called human LDLR; not shown: red fluorescent protein (RFP) fused at the C-term (intracellular end)
Description: competition on CHO-hLDLR-RFP cells: 10 uM test peptide against 10 uM SEQ ID NO: 17/STag, STag read by FRET.

Positions of bridges follow the written chain, without caps; N, C: chain ends. Non-standard residues stand in square brackets, D forms with d. No end group written: not given here.

Chain of mouse LDLR in tissues of wild-type mice (P35951 22-862): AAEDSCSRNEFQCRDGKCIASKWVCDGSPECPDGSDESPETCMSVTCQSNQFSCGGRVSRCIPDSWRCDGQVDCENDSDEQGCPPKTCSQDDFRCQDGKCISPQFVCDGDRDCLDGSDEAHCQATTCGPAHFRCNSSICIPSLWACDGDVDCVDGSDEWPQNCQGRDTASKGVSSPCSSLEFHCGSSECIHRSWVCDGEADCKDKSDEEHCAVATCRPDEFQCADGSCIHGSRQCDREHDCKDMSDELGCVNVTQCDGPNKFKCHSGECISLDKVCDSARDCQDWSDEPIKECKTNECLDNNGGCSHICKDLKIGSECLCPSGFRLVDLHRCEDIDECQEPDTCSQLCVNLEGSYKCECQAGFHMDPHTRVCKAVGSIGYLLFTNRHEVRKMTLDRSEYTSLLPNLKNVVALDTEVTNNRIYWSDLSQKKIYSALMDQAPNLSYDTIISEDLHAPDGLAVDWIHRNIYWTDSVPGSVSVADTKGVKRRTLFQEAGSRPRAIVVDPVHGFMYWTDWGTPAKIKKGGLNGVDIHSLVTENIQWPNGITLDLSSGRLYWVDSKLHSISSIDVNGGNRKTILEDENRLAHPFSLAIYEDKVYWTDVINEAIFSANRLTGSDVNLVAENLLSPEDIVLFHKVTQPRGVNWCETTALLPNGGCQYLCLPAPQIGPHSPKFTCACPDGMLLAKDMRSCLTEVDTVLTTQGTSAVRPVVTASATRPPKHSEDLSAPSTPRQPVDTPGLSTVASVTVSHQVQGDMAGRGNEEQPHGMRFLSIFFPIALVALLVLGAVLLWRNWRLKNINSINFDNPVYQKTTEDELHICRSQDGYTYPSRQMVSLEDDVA
Chain of rat LDLR on rat brain capillary endothelial cells (RBCEC) (rat) (P35952 22-879): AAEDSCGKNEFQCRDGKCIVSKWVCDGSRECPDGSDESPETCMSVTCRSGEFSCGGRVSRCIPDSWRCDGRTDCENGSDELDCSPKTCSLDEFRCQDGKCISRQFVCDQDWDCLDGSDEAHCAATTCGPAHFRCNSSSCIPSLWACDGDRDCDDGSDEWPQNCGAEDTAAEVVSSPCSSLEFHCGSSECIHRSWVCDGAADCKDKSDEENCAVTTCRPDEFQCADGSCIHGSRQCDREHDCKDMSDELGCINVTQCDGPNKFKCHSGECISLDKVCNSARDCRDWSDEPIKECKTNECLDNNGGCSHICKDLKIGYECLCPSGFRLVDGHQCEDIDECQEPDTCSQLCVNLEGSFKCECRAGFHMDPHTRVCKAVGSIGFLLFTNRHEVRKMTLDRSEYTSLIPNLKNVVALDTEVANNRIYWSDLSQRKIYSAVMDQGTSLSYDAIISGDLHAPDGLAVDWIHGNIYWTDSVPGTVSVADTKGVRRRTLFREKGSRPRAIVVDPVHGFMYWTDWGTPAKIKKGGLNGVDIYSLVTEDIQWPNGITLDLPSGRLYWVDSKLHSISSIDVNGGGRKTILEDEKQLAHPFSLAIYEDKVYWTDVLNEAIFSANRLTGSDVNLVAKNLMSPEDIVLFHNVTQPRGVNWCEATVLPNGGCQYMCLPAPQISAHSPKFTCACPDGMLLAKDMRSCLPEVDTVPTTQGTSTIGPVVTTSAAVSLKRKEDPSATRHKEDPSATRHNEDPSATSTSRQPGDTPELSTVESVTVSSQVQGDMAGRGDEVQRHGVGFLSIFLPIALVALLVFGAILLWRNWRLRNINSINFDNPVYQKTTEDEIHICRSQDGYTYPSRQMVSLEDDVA

In turn, “LDL made fluorescent by adsorption of DiI (ligand)” gave a saturation of the transport into the lower compartment of the in-vitro BBB model (WT) (µg per insert) in test [1] of 4.

B1: peptide SEQ ID NO: 5 radiolabelled using tritium (peptide)
peptide: XMXRLRGC
modifications: (D)-pen at 1; Thz at 3; tritiated, by the method of Example IX a tritiated propionyl group on the N-term amine
For B1, in test [2], the “peptide concentration in the adrenal glands, LDLR-KO mice compared to wild-type mice, 10 min after intravenous injection” value was ~2 fold decrease; the “peptide concentration in the intestine, LDLR-KO mice compared to wild-type mice, 10 min after intravenous injection” value was ~6 fold decrease; the “peptide concentration in the liver, LDLR-KO mice compared to wild-type mice, 10 min after intravenous injection” value was ~5 fold decrease.

B2: peptide SEQ ID NO: 10 (peptide)
peptide: [dC]MPRLR[dA]C
modifications: disulfide 1-8 (inferred)
notes: also called (D)-cys-Met-Pro-Arg-Leu-Arg-(D)-ala-Cys
As to B2, the “Displacement of the control peptide” value in test [3] turned out to be 54%.
